# T1: Human BMP1 CD+CUB1 truncated antigen (human, UniProt P13497 121-434, limits assumed)
# T1 construct: domain: CD+CUB1
# T1 sequence (looked up): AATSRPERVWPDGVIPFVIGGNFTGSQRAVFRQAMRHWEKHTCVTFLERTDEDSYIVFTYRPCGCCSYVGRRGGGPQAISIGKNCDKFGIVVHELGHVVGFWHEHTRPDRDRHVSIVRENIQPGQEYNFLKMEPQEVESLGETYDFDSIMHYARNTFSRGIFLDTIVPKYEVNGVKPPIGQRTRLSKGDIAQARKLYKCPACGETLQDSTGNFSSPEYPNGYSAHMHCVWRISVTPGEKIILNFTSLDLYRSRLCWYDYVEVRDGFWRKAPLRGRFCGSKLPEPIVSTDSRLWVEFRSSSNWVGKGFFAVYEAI
# T2: Human TLL1 (human, UniProt O43897 148-1013, limits assumed)
# T2 sequence (looked up): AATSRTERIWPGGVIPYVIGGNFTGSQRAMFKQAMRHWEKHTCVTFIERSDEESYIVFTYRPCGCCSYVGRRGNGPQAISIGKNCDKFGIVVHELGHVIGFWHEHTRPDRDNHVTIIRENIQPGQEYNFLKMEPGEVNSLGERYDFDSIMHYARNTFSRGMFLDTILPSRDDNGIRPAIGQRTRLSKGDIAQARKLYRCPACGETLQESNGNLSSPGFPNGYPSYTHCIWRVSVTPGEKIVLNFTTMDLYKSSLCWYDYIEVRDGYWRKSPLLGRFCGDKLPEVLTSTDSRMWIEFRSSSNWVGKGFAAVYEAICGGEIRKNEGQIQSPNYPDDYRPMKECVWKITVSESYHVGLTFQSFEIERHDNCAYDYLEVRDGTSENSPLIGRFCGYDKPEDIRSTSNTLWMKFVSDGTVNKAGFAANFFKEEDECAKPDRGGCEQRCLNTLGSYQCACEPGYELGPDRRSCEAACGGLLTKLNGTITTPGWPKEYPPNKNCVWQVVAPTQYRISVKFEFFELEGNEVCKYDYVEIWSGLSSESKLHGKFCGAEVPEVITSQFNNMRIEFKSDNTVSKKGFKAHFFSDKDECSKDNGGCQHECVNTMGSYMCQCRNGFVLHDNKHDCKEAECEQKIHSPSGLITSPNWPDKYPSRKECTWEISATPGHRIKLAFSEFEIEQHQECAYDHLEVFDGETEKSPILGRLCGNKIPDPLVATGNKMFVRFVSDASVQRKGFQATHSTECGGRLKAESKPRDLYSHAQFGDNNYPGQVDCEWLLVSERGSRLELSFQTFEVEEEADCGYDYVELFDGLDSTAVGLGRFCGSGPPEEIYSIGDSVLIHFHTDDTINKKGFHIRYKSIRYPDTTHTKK
# T3: Human BMP1-1 (human, UniProt P13497-2 121-730, limits assumed)
# T3 sequence (looked up): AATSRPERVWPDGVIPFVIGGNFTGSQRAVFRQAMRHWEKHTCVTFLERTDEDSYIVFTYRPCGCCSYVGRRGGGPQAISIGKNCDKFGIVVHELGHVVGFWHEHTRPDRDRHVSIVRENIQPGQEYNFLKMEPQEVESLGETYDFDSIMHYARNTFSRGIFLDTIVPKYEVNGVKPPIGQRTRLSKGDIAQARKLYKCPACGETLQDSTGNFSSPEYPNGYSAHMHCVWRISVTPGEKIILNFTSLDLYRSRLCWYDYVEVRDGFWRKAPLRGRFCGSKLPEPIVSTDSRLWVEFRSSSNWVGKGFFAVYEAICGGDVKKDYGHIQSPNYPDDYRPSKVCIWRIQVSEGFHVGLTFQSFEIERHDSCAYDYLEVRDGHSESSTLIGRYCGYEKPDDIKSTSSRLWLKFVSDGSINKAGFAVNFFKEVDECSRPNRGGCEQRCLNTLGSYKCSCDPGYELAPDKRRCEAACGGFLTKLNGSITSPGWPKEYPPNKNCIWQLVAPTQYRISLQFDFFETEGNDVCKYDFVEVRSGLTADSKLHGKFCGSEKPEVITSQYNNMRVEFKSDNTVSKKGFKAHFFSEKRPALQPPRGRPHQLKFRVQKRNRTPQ
# Experiments:
# [1] = molecular target: T1, Human BMP1 CD+CUB1 truncated antigen; test: SPR, mAb captured on protein A, HBS-EP
# Procedure: The 16 lead panel antibodies expressed in HEK cells were evaluated for binding to a truncated version of human BMP containing the catalytic domain and truncated domain (Human BMP1 CD+CUB1 truncated antigen) by SPR using BIACORE T200. HBS-EP+ buffer was used and the experiment run at 25° C. Protein A was immobilised to a CM5 sensor chip via amine coupling. The lead panel antibodies were captured onto protein A surface. Human BMP1 CD+CUB1 was then passed over the captured antibodies at various concentrations.
# [2] = molecular target: T2, Human TLL1; test: cell-based or functional assay
# [3] = molecular target: T3, Human BMP1-1; test: cell-based or functional assay
Binder,Kd [1] [nM],"IC50, FRET enzyme activity, 250 pM biotinylated huTLL-1 [2]","IC50, FRET enzyme activity, 62.5 pM huBMP1 [3]"
"13Y039-4B06-4324 (antibody, human IgG1, kappa, V domains shown, Fully human IgG1 LAGA, kappa; HEK expressed) VH: QVQLVQSGAEVKKPGASVKVSCKASGYTFRGYYMSWVRQAPGQGLEWMGWINPMSGETNYAQKFQGRVTMTRDTSISTAYMELSRLRSDDTAVYYCARDTGELDGMNWYFDLWGRGTLVTVSS VL: EIVLTQSPATLSLSPGERATLSCRASQSVSSYLAWYQQKPGQAPRLLIYDASNRATGIPARFSGSGSGTDFTLTISSLEPEDFAVYYCQQSDSWPPTFGGGTKVEIKR",3.9,30 pM,20 pM
"13Y039-4B06-4348 (antibody, human IgG1, kappa, V domains shown, Fully human IgG1 LAGA, kappa; HEK expressed) VH: QVQLVQSGAEVKKPGASVKVSCKASGYTFGGYYMSWVRQAPGQGLEWMGWINPNSGETYYAQKFQGRVTMTRDTSISTAYMELSRLRSDDTAVYYCARDTGELDGMNWYFDLWGRGTLVTVSS VL: EIVLTQSPATLSLSPGERATLSCRASQSVSSYLAWYQQKPGQAPRLLIYDASNRATGIPARFSGSGSGTDFTLTISSLEPEDFAVYYCQQSDSWPPTFGGGTKVEIKR",1.5,40 pM,20 pM
"13Y039-4B06-4351 (antibody, human IgG1, kappa, V domains shown, Fully human IgG1 LAGA, kappa; HEK expressed) VH: QVQLVQSGAEVKKPGASVKVSCKASGYTFSGYYMSWVRQAPGQGLEWMGWINPNSGETFYAQKFQGRVTMTRDTSISTAYMELSRLRSDDTAVYYCARDTGELDGMNWYFDLWGRGTLVTVSS VL: EIVLTQSPATLSLSPGERATLSCRASQSVSSYLAWYQQKPGQAPRLLIYDASNRATGIPARFSGSGSGTDFTLTISSLEPEDFAVYYCQQSDSWPPTFGGGTKVEIKR",1.9,50 pM,30 pM
"13Y039-4B06-4364 (antibody, human IgG1, kappa, V domains shown, Fully human IgG1 LAGA, kappa; HEK expressed) VH: QVQLVQSGAEVKKPGASVKVSCKASGYTFRGYYMSWVRQAPGQGLEWMGWINPNSGETIYAQKFQGRVTMTRDTSISTAYMELSRLRSDDTAVYYCARDTGELDGMNWYFDLWGRGTLVTVSS VL: EIVLTQSPATLSLSPGERATLSCRASQSVSSYLAWYQQKPGQAPRLLIYDASNRATGIPARFSGSGSGTDFTLTISSLEPEDFAVYYCQQSDSWPPTFGGGTKVEIKR",2.4,60 pM,20 pM
"13Y039-4B06-4327 (antibody, human IgG1, kappa, V domains shown, Fully human IgG1 LAGA, kappa; HEK expressed) VH: QVQLVQSGAEVKKPGASVKVSCKASGYTFPGYYMTWVRQAPGQGLEWMGNINPNSGWTNYAQKFQGRVTMTRDTSISTAYMELSRLRSDDTAVYYCARDTGELDGMNWYFDLWGRGTLVTVSS VL: EIVLTQSPATLSLSPGERATLSCRASQSVSSYLAWYQQKPGQAPRLLIYDASNRATGIPARFSGSGSGTDFTLTISSLEPEDFAVYYCQQSDSWPPTFGGGTKVEIKR",1.5,10 pM,10 pM
"13Y039-4B06-4325 (antibody, human IgG1, kappa, V domains shown, Fully human IgG1 LAGA, kappa; HEK expressed) VH: QVQLVQSGAEVKKPGASVKVSCKASGYTFWGYYMSWVRQAPGQGLEWMGWINPQSGETNYAQKFQGRVTMTRDTSISTAYMELSRLRSDDTAVYYCARDTGELDGMNWYFDLWGRGTLVTVSS VL: EIVLTQSPATLSLSPGERATLSCRASQSVSSYLAWYQQKPGQAPRLLIYDASNRATGIPARFSGSGSGTDFTLTISSLEPEDFAVYYCQQSDSWPPTFGGGTKVEIKR",2.8,20 pM,30 pM
"13Y039-4B06-4328 (antibody, human IgG1, kappa, V domains shown, Fully human IgG1 LAGA, kappa; HEK expressed) VH: QVQLVQSGAEVKKPGASVKVSCKASGYTFHGYYMNWVRQAPGQGLEWMGWINPLSGETNYAQKFQGRVTMTRDTSISTAYMELSRLRSDDTAVYYCARDTGELDGMNWYFDLWGRGTLVTVSS VL: EIVLTQSPATLSLSPGERATLSCRASQSVSSYLAWYQQKPGQAPRLLIYDASNRATGIPARFSGSGSGTDFTLTISSLEPEDFAVYYCQQSDSWPPTFGGGTKVEIKR",2.8,40 pM,30 pM
"13Y039-4B06-4373 (antibody, human IgG1, kappa, V domains shown, Fully human IgG1 LAGA, kappa; HEK expressed) VH: QVQLVQSGAEVKKPGASVKVSCKASGYTFRSYYMNWVRQAPGQGLEWMGIINPSSGETSYAQKFQGRVTMTRDTSTSTVYMELSSLRSEDTAVYYCARDTGELDGMNWYFDLWGRGTLVTVSS VL: EIVLTQSPATLSLSPGERATLSCRASQSVSSYLAWYQQKPGQAPRLLIYDASNRATGIPARFSGSGSGTDFTLTISSLEPEDFAVYYCQQSDSWPPTFGGGTKVEIKR",3.3,40 pM,90 pM
"13Y039-127G03-2890 (antibody, human IgG1, kappa, V domains shown, Fully human IgG1 LAGA, kappa; HEK expressed) VH: QVQLVQSGAEVKKPGSSVKVSCKASGGTFSSYAISWVRQAPGQGLEWMGGIIPVFGSAYYAQKFQGRVTITADESTSTAYMELSSLRSEDTAVYYCAGEGRAYYGSESYDDSDYMDVWGKGTTVTVSS VL: DIQMTQSPSSLSASVGDRVTITCQASQDISNYLNWYQQKPGKAPKLLIYDASNLETGVPSRFSGSGSGTDFTFTISSLQPEDIATYYCQQADIFPLTFGGGTKVEIKR",0.3,18.2 nM,0.4 nM
"13Y039-152B02-2940 (antibody, human IgG1, kappa, V domains shown, Fully human IgG1 LAGA, kappa; HEK expressed) VH: QVQLVQSGAEVKKPGSSVKVSCKASGGTFSSDAISWVRQAPGQGLEWMGGIITNFGTATYAQKFQGRVTITADESTSTAYMELSSLRSEDTAVYYCARDVGVQLVYHGAFDIWGQGTMVTVSS VL: DIQMTQSPSSLSASVGDRVTITCQASQDISNYLNWYQQKPGKAPKLLIYDASNLATGVPSRFSGSGSGTDFTFTISSLQPEDIATYYCQQDDYLPITFGGGTKVEIKR",1.9,50 pM,0.13 nM
"13Y039-152B02-2935 (antibody, human IgG1, kappa, V domains shown, Fully human IgG1 LAGA, kappa; HEK expressed) VH: QVQLVQSGAEVKKPGSSVKVSCKASGGTFSESAISWVRQAPGQGLEWMGGIIPTFDTTNYAQKFQGRVTITADESTSTAYMELSSLRSEDTAVYYCARDVGVQLVYHGAFDIWGQGTMVTVSS VL: DIQMTQSPSSLSASVGDRVTITCQASQDISNYLNWYQQKPGKAPKLLIYDASNLATGVPSRFSGSGSGTDFTFTISSLQPEDIATYYCQQDDYLPITFGGGTKVEIKR",0.8,90 pM,0.25 nM
"13Y039-152B02-2948 (antibody, human IgG1, kappa, V domains shown, Fully human IgG1 LAGA, kappa; HEK expressed) VH: QVQLVQSGAEVKKPGSSVKVSCKASGGTFSDFAISWVRQAPGQGLEWMGGIIPIYGTASYAQKFLGRVTITADESTSTAYMELSSLRSEDTAVYYCARDVGVQLVYHGAFDIWGQGTMVTVSS VL: DIQMTQSPSSLSASVGDRVTITCQASQDISNYLNWYQQKPGKAPKLLIYDASNLATGVPSRFSGSGSGTDFTFTISSLQPEDIATYYCQQDDYLPITFGGGTKVEIKR",1.4,80 pM,0.31 nM
